In one data set the test system is plant cell. The conditions noted are these: relative to PSK-α; cited from earlier work.
The subject of data set [1] is Arabidopsis cultured cells. Kind of data set: Rate of cell division / proliferation of transgenic cells. In kind it is cell-based, Arabidopsis thaliana. Particulars: for Cell proliferation of transformed Arabidopsis cultured cells: cells transformed by the gene. How it is done: Constructs were transformed into Agrobacterium tumefaciens (C58C1Rif^R) by triparental mating (Van Haute et al., 1983), and Agrobacterium-mediated transformation of roots of Arabidopsis Columbia ecotype was essentially as described (Valvekens et al., 1988). Transgenic microcalli were generated by incubating co-cultivated root explants for 3 weeks on the callus induction medium (B5+0.5 mg/l 2,4-D and 0.05 mg/l KIN) supplemented with 50 mg/l Kan sulphate (Life Technologies, Grand Island, N.Y., USA) and 750 mg/l vancomycin hydrochloride (Wako, Osaka, Japan). The individual regenerating microcalli were transferred to fresh medium to ensure that all transformants were due to independent T-DNA insertions. To detect the introduced genes, genomic DNA was isolated from transgenic calli, digested with BamHI, and allowed to hybridize with the labeled cDNA as described above. Arabidopsis cells transformed with the binary vector alone served as controls.
To examine whether AtPSK2 and AtPSKL indeed code for precursors to PSK, we transformed 28-day-old Arabidopsis roots with artificially mutated AtPSK2 or AtPSKL cDNAs in the sense orientation designed to produce [Ser^4]PSK-α instead of PSK-α, and the wild-type cDNAs in sense and antisense orientations, respectively. The chimeric genes were placed under the control of the constitutive cauliflower mosaic virus (CaMV) 35S promoter incorporated within the binary vector pMAT037 (Matsuoka and Nakamura, 1991). Arabidopsis cells transformed with the binary vector alone served as controls. B5 medium (Gamborg et al., 1968) supplemented with 0.5 mg/L 2,4-dichlorophenoxyacetic acid (2,4-D) and 0.05 mg/L kinetin (KIN) was used to induce calli.
The rate of cell division was investigated on the transgenic cells. The results on AtPSK2 and AtPSKL are shown in FIGS. 12 and 13, respectively. In FIGS. 12 and 13, A indicates the result of the sense transgenic cells, B indicates the result of the control cells, C indicates the result of the antisense transgenic cells, respectively. […]

The next data set has as its system Arabidopsis cells. Kind of data set: LC/MS quantification of PSK analogs secreted into conditioned medium (CM) by transgenic cells. In kind it is cell-based, Arabidopsis thaliana. Particulars: cells transformed by the gene. The source says:
A 22-mer primer (5′-[…]-3′) based on the nucleic acid sequence of the AtPSK2 cDNA and A 24-mer primer (5′-[…]-3′) based on the nucleic acid sequence of the AtPSKL cDNA were synthesized and used to obtain the mutated cDNAs that were designed to produce unnatural [Ser^4]PSK-α instead of PSK-α. Mutations were introduced with a LA PCR In Vitro Mutagenesis Kit (Takara) and confirmed by sequencing. The pMAT037 (Matsuoka and Nakamura, 1991) was employed as a binary vector for Arabidopsis root transformation. Original or mutated cDNAs were digested with SacI and HindIII or KpnI and inserted in-frame into the same sites of the vectors to construct chimeric genes harboring the cDNA in sense or antisense orientations, respectively. Expression of the chimeric genes was driven by the promoter of the CaMV 35S transcript.
Constructs were transformed into Agrobacterium tumefaciens (C58C1Rif^R) by triparental mating (Van Haute et al., 1983), and Agrobacterium-mediated transformation of roots of Arabidopsis Columbia ecotype was essentially as described (Valvekens et al., 1988). […]
Mass spectra were obtained using a Fisons VG platform quadruple mass spectrometer with electrospray ionization interfaced to a Jasco PU 980 HPLC system. […] The semiquantitative amounts of the PSK-α, PSK-β, [Ser^4]PSK-α and [Ser^4]PSK-β in CM were measured based on the peak heights without an internal standard. […]

Square brackets hold non-standard residues; d marks the D form. Ends that are not written are not given here. sY = N[C@@H](Cc1ccc(OS(=O)(=O)O)cc1)C(=O)O

On to [sY]I[sY]T [PSK-β], for which the “Cell proliferation activity compared to that of PSK-α” value with plant cell was “less than one-tenth”. As to [sY]I[sY]TQ [PSK-α, reference compound], the “Effect of supplementation in the medium on decreased mitogenic activity of antisense transgenic cells” value in data set [1] (PSK-α added to medium of antisense transgenic cells) is “alternated in part”.

B1: AtPSK2 gene: gene of 545 bases (SEQ ID NO: 2) encoding 87-amino-acid phytosulfokine precursor of Arabidopsis thaliana (nucleic acid, listed as Arabidopsis thaliana)
DNA: TTTAAGCATCTCTCTCCCTTCAAAGAAAATATCACAAAAATGGCAAACGTCTCCGCTTTGCTCACCATAGCTCTTCTCCTTTGCTCCACGCTAATGTGCACTGCCCGCCCCGAACCGGCCATCTCCATCTCTATCACGACTGCTGCCGATCCATGTAACATGGAGAAGAAGATAGAAGGAAAATTAGATGACATGCATATGGTAGACGAAAACTGTGGTGCAGACGACGAAGATTGCTTAATGAGGAGGACTTTGGTCGCTCATACTGATTACATCTATACCCAGAAGAAGAAGCATCCTTGATTTTCACTTACTCATTTCTAACAAACTTTTGCTCAAGATTATGTAATTTATGTCATCCTTAATTAGTATTTGTCACATACAAGATCAAGATAGTTATGATTGTGATTATTTATATGTATTTTGGATGATATATTGTAGAACTAGAAGTTTGACAATAAAAAGTTTATAGTGTCGTTGTATGTTTAAGAAGTTTGACAATAAAAACTTTATAGTGTTGTTGCAAAAAAAAAAAAAAAAAAAAA
Turning to B1, in the data set with Arabidopsis cells, the “Secretion of PSK by transformed Arabidopsis cultured cells” value is “could secret the PSK”. Also, the “Cell proliferation of transformed Arabidopsis cultured cells” value in data set [1] was “cell proliferation was enhanced”.

B2: AtPSKL gene: gene of 479 bases (SEQ ID NO: 4) encoding 79-amino-acid phytosulfokine precursor of Arabidopsis thaliana (nucleic acid, listed as Arabidopsis thaliana)
DNA: CTTCTCAGGCTCCCATTATCTTTCTCTATTTTGCAAATCAGTATGGGTAAGTTCACAACCATTTTCATCATGGCTCTCCTTCTTTGCTCTACGCTAACCTACGCAGCAAGGCTGACTCCGACGACAACCACCGCTTTGTCCAGAGAAAACTCCGTCAAGGAAATTGAAGGAGACAAGGTTGAAGAAGAAAGCTGCAACGGAATTGGAGAAGAAGAATGTTTGATAAGACGAAGCCTTCTTCTTCACACCGATTACATTTATACTCAGAATCACAAGCCCTAAGTTTCTGTATTAGAGCAATTAATTAACTAATTACATTATCAAACCTATCACTGTAGTACTTTCTGTTTTCTGTTCGTCTTTTTTGTTTTGTTTTGTTTATGTTATCGCTATTTTAAAGTTTCATTGTTATTTTGAAAGTTCTTACACCATCATTATTGATAGTCTCTTAAAACAAAAAAAAAAAAAAAAAAAAAAAA
Turning to B2, the “Secretion of PSK by transformed Arabidopsis cultured cells” value with Arabidopsis cells is given as “could secret the PSK”. Besides, in data set [1], the “Cell proliferation of transformed Arabidopsis cultured cells” value is “cell proliferation was enhanced”.

Source of the values: US20030032777A1, “Precursor polypeptide of phytosulfokine derived from Arabidopsis thaliana and a gene encoding said polypeptide” (priority 2001, published 2003).
